Data reported in the supplement of paper PMC10126150.
± gives the standard deviation of the averaged measurements.

test system: ATP; test: switch fluorescence ratio, 500 uM ATP over buffer (Cy3 cluster intensity, sum of 5 cycles each) (fold (ratio)); higher = stronger signal-on switching upon ATP binding; sequences stand for … in TCGTCGGCAGCGTCAGATGTGTATAAGAGACAGTTTTTTTTTTTTTTTTTTTTTTTTT…TC; settings: aptamer strand: ATP DNA aptamer (quencher-CACCTGGGGGAGTATTGCGGAGGAAGG + anchor), 100 nM annealed; ATP concentration: 500 uM
Procedure, shortened: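 Exposure to 500 uM ATP lasted 15 min at 22 °C before imaging, and a selection-buffer image was taken beforehand, for Cy3-labelled switching-strand clusters on a modified Illumina MiSeq flow-cell annealed to 100 nM quencher-labelled ATP aptamer. Five buffer/ATP cycles were run with NaOH stripping and re-annealing between them. The fluorescence ratio per cluster is summed target-cycle over summed buffer-cycle Cy3 intensity, averaged per switch-domain sequence. Clusters outside 100-1000 RFU were excluded.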

Sequence	switch fluorescence ratio
TGTGAAGAAA	0.977 ± 0.06
TGTGAATAGG	1.02 ± 0.065
TGTGACTGCC	1.04 ± 0.055
TGTGAGCTTT	0.975 ± 0.03
TGTGAGGGA	1 ± 0.029
TGTGAGTCGG	0.948 ± 0.03
TGTGATAATG	0.9831 ± 0.0017
TGTGATGTCA	1.01 ± 0.016
TGTGATTCTA	0.972 ± 0.017
TGTGATTTAC	1.05 ± 0.011
TGTGCCGCGC	1.06 ± 0.07
TGTGCCTGCT	1 ± 0.043
TGTGCTAGGG	0.98 ± 0.028
TGTGCTATGG	1.01 ± 0.02
TGTGCTATGT	0.995 ± 0.028
TGTGGAACGT	0.9813 ± 0.0082
TGTGGAAGGA	0.9862 ± 0.0039
TGTGGAAGGG	0.981 ± 0.019
TGTGGAGAAG	0.974 ± 0.025
TGTGGCACTT	0.998 ± 0.022
TGTGGCTTCC	2.25 ± 0.099
TGTGGGAGAG	0.973 ± 0.038
TGTGGGAGGC	1.04 ± 0.018
TGTGGGGAGT	0.952 ± 0.019
TGTGGGGATA	0.9904 ± 0.0011
TGTGGGGCAG	0.968 ± 0.03

Sequence	switch fluorescence ratio
TGTGGGGCTT	1.01 ± 0.035
TGTGGGGGG	0.951 ± 0.025
TGTGGGTTTA	0.988 ± 0.033
TGTGGTAAGG	0.98472 ± 0.0006
TGTGGTCCAA	0.9855 ± 0.0036
TGTGGTCGGG	0.993 ± 0.038
TGTGGTGGCA	1 ± 0.058
TGTGGTGGGA	0.98 ± 0.02
TGTGGTGTGT	1 ± 0.03
TGTGGTTACA	0.989 ± 0.025
TGTGGTTATT	0.991 ± 0.025
TGTGTAATTT	0.999 ± 0.012
TGTGTCAGAC	1.01 ± 0.03
TGTGTCAGGG	1.01 ± 0.022
TGTGTCAGGT	0.997 ± 0.05
TGTGTGAAGT	1.01 ± 0.059
TGTGTGATTC	1.3 ± 0.49
TGTGTGGGGG	1.01 ± 0.031
TGTGTGTGGT	1.006 ± 0.0062
TGTGTTAAGA	0.9898 ± 0.0095
TGTGTTAGAA	1.01 ± 0.015
TGTGTTATGG	0.968 ± 0.049
TGTGTTCTGG	0.986 ± 0.011
TGTGTTTAAA	0.967 ± 0.021
TGTGTTTTGT	0.979 ± 0.02
TGTTAAAAAG	0.991 ± 0.013

Sequence	switch fluorescence ratio
TGTTAAGGGC	1 ± 0.039
TGTTACATGT	1.04 ± 0.041
TGTTAGAGGG	1.01 ± 0.063
TGTTAGATAG	1 ± 0.025
TGTTAGGC	1.01 ± 0.05
TGTTAGGGCT	0.918 ± 0.021
TGTTAGGGGA	1.01 ± 0.02
TGTTAGTCCC	0.9897 ± 0.0022
TGTTAGTCGT	1.013 ± 0.0091
TGTTAGTGGG	1.02 ± 0.032
TGTTATCAGG	1.01 ± 0.038
TGTTATTACC	1 ± 0.013
TGTTCCGTCT	0.9732 ± 0.0095
TGTTCGAGGC	1.03 ± 0.013
TGTTCGGAAA	1.01 ± 0.014
TGTTCTAGTA	1.27 ± 0.45
TGTTCTTCCG	1.23 ± 0.1
TGTTCTTGGG	0.985 ± 0.026
TGTTGAGCAA	1.6 ± 0.013
TGTTGATAGC	0.992 ± 0.037
TGTTGATAGT	1 ± 0.023
TGTTGATGGT	0.976 ± 0.031
TGTTGATTTT	1.03 ± 0.043
TGTTGCCCCT	1.02 ± 0.051
